This is an account of results in IntAct's records for PubMed 34597683.

B1: Prickle-like protein 1 (Mus musculus), Q3U5C7 (parent)
chain: MPLEMEPKMSKLVFGCQRSSTSDDDSGCALEEYAWVPPGLRPEQIQLYFACLPEEKVPYVNSPGEKHRIKQLLYQLPPHDNEVRYCQSLSEEEKKELQVFSAQRKKEALGRGTIKLLSRAVMHAVCEQCGLQMNGGEVAVFASRAGPGVCWHPSCFVCFTCNELLVDLIYFYQDGKIHCGRHHAELLKPRCSACDEIIFADECTEAEGRHWHMKHFCCLECETVLGGQRYIMKDGRPFCCGCFESLYAEYCETCGEHIGVDHAQMTYDGQHWHATEACFSCAQCKASLLGCPFLPKQGQIYCSKTCSLGEDIHASDSSDSAFQSARSRDSRRSVRMGRSSRSADQCRQSLLLSPALNYKFPGLSGNADDTLSRKLDDVSLASRQGAGFANEEFWKARVEQEASEDPEEWAEHEDYMTQLLLKFGDKNLFQQQSSEVDPRASEHWIPDNMVTNKPEVKPNHQGLASKKYQSDMYWAQSQDGLGDSAYGSHPGPASSRRLQELDLDHGAAGYTHDQSQWYEDSLECLSDLKPEQSIRDSMDSLALSNITGASVDGESKPRPSLYSLQNFEEIEAEDCEKMSNMGTLNSSMLHRSAESLQSLNSGLCPEKILPEEKPAHLPVLRRSKSQSRPQQVKFSDDVIDNGSYDIEIRQPPMSERTRRRAYHFEERGSRPHHHRHRRSRKSRSDNALNLVTERKYSAKDRLRLYTPDNYEKFIQNKSARELQAYMQNANLYSQYAHATSDYALQNPGMNRFLGLCGEDDDSWCSSSTSSSDSEEEGYFLGQPIPQPRPQRFTYYTDDLSSPASALPTPQFTQRTTKSKKKKGHKGKNCIIS
partner: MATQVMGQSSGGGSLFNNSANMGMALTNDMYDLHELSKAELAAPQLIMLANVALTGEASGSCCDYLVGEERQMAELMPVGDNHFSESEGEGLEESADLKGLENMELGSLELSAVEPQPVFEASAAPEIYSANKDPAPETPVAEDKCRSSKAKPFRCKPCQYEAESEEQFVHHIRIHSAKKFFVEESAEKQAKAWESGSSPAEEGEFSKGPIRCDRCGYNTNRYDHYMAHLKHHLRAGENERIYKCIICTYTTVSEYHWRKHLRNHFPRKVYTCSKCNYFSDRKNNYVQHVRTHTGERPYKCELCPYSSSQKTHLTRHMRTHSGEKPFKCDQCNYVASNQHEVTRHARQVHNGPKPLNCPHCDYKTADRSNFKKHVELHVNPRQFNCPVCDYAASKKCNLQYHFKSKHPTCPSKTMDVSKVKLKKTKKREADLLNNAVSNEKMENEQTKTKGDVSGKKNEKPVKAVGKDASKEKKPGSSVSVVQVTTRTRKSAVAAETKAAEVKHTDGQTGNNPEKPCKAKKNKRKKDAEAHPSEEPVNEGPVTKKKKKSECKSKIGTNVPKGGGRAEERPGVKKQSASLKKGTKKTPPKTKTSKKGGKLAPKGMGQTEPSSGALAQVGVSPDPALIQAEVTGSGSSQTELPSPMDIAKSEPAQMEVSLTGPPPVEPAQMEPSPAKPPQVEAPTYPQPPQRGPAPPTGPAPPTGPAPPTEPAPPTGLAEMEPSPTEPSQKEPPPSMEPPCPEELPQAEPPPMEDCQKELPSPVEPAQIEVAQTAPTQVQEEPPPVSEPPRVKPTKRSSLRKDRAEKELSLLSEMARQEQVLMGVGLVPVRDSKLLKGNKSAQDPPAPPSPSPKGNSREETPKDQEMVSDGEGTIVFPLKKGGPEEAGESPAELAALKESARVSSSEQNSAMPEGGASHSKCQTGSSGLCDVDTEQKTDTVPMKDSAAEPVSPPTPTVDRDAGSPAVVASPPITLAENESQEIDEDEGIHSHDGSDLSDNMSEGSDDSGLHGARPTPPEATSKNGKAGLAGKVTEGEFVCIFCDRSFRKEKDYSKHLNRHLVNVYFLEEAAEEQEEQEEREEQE

The variants in this assay derive from B1. The note with it: with rest_mouse Rest.
Turning to R104Q, the “effect of a mutation on the interaction” value was “decreasing interaction”.
